The target in this assay is NFAT (in Hela cells) (human). Description: cell-based or functional assay.

In turn, “Flag tagged full length wild type human IRAK-1 (pFlag-IRAK-1)” returned an NFAT-luciferase reporter activity in Hela cells of 80 % reduction.

For the origin of these results see US20100189695A1, “IRAK-1 AS REGULATOR OF DISEASES AND DISORDERS” (priority 2008, published 2010).
